Measured values as given in patent US20020157122.

Tests used:
[1] = target: hAPP717 (variant of humanized APP), P12023
[2] = target: humanized APP bearing the Swedish variant (a murine APP in which the Aβ1-42 region corresponds to the human Aβ1-42), P12023
[3] = target: T1, humanized wild type APP (hAPPwt), P12023
T1 chain: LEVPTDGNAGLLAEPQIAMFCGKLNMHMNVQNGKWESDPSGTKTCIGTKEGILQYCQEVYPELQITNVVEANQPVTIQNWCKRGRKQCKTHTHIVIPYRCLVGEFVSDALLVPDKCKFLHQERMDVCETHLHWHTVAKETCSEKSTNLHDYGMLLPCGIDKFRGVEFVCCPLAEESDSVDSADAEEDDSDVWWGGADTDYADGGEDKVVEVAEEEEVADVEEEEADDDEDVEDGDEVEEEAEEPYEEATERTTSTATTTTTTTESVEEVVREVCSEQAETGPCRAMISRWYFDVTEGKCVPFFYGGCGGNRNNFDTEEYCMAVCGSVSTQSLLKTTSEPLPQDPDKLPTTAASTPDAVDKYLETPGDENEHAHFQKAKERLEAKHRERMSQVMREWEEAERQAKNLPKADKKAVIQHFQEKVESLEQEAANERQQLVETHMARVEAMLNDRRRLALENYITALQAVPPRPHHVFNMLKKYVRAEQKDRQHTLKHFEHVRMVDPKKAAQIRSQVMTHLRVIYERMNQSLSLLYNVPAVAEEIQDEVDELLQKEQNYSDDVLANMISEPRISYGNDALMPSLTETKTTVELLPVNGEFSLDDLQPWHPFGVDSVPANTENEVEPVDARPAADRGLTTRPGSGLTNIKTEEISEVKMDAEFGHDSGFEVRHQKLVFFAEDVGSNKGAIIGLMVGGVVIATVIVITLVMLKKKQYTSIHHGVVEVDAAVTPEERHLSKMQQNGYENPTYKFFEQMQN

[4] = target: T2, mouse APP (endogenous β-amyloid precursor protein), P12023
T2 chain: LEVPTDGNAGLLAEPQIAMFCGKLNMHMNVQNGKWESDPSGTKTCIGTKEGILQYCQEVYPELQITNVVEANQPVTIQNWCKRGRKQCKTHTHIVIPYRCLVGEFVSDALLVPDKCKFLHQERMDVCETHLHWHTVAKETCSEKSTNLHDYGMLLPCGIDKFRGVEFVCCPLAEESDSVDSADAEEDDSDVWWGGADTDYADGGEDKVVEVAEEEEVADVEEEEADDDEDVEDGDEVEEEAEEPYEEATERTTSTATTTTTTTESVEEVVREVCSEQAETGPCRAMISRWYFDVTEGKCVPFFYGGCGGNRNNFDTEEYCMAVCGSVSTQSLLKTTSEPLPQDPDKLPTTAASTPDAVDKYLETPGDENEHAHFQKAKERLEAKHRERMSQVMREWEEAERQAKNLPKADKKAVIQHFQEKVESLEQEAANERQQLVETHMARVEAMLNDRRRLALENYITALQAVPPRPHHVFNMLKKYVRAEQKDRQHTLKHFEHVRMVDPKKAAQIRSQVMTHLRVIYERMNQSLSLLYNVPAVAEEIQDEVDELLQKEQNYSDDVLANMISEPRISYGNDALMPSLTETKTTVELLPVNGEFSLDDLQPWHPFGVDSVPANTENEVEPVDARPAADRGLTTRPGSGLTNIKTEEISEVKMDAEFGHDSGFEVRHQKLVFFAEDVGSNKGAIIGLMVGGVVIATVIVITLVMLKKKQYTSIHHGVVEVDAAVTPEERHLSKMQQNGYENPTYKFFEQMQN

B1: human BACE1 (full-length, expressed from recombinant adenovirus) (protein)
chain: ETDEEPEEPGRRGSFVEMVDNLRGKSGQGYYVEMTVGSPPQTLNILVDTGSSNFAVGAAPHPFLHRYYQRQLSSTYRDLRKGVYVPYTQGKWEGELGTDLVSIPHGPNVTVRANIAAITESDKFFINGSNWEGILGLAYAEIARPDDSLEPFFDSLVKQTHVPNLFSLQLCGAGFPLNQSEVLASVGGSMIIGGIDHSLYTGSLWYTPIRREWYYEVIIVRVEINGQDLKMDCKEYNYDKSIVDSGTTNLRLPKKVFEAAVKSIKAASSTEKFPDGFWLGEQLVCWQAGTTPWNIFPVISLYLMGEVTNQSFRITILPQQYLRPVEDVATSQDDCYKFAISQSSTGTVMGAVIMEGFYVVFDRARKRIGFAVSACHVHDEFRTAAVEGPFVTLDMEDCGYNIPQTDESTLMTIAYVMAAICALFMLPLCLMVCQWRCLRCLRQQHDDFADDISLLK
+11 derived β-CTF in neurons (immunoprecipitation with CT15) [1]: when neurons co-expressing human BACE1 and hAPPwt or hAPPswe or hAPP717 there is secreted a peptide corresponding to the +11 derived β-CTF (+11-CTF) in addition to the +1 derived β-CTF
secretion of human Aβ11-40 (IP-MS of conditioned media with 4G8) [1]: The human Aβ11-40 peptides are also secreted by primary neurons co expressing human BACE1 and hAPPswe or hAPP717
+11 derived β-CTF in neurons (immunoprecipitation with CT15) [2]: when neurons co-expressing human BACE1 and hAPPwt or hAPPswe or hAPP717 there is secreted a peptide corresponding to the +11 derived β-CTF (+11-CTF) in addition to the +1 derived β-CTF
secretion of Aβ peptides into culture medium of BACE1 deficient astrocytes [2]: BACE1 deficient astrocytes co-infected with adenoviruses expressing both APPswe and BACE1 restored the ability to secrete Aβ peptides into culture medium
secretion of human Aβ11-40 (IP-MS of conditioned media with 4G8) [2]: The human Aβ11-40 peptides are also secreted by primary neurons co expressing human BACE1 and hAPPswe or hAPP717
+11 derived β-CTF in neurons (immunoprecipitation with CT15) [3]: when neurons co-expressing human BACE1 and hAPPwt or hAPPswe or hAPP717 there is secreted a peptide corresponding to the +11 derived β-CTF (+11-CTF) in addition to the +1 derived β-CTF
secretion of human Aβ11-40 (IP-MS of conditioned media with 4G8) [3]: now revealed the secretion of human Aβ11-40 peptide in addition to the murine Aβ11-40 peptide from murine neurons co-expressing human BACE1 and hAPPwt

B2: mouse BACE1 (endogenous, beta-site APP-cleaving enzyme 1) (protein)
chain: ETDEESEEPGRRGSFVEMVDNLRGKSGQGYYVEMTVGSPPQTLNILVDTGSSNFAVGAAPHPFLHRYYQRQLSSTYRDLRKGVYVPYTQGKWEGELGTDLVSIPHGPNVTVRANIAAITESDKFFINGSNWEGILGLAYAEIARPDDSLEPFFDSLVKQTHIPNIFSLQLCGAGFPLNQTEALASVGGSMIIGGIDHSLYTGSLWYTPIRREWYYEVIIVRVEINGQDLKMDCKEYNYDKSIVDSGTTNLRLPKKVFEAAVKSIKAASSTEKFPDGFWLGEQLVCWQAGTTPWNIFPVISLYLMGEVTNQSFRITILPQQYLRPVEDVATSQDDCYKFAVSQSSTGTVMGAVIMEGFYVVFDRARKRIGFAVSACHVHDEFRTAAVEGPFVTADMEDCGYNIPQTDESTLMTIAYVMAAICALFMLPLCLMVCQWRCLRCLRHQHDDFADDISLLK
Aβ1-40 and Aβ1-42 in conditioned media of astrocytes (Aβ ELISA) [2]: Aβ1-40 and Aβ1-42 were easily detected from BACE1+/+ and BACE1+/- astrocyte cultures by Aβ ELISA assay, but were not detectable from BACE1-/- cultures
Aβ1-40 and Aβ1-42 in conditioned media of neurons (quantitative sandwich ELISA) [2]: showed high levels of Aβ1-40 and Aβ1-42 while undetectable levels of Aβ1-40 and Aβ1-42 were observed from media of BACE1-/- cultures expressing APPswe
secretion of Aβ peptides (IP-MS of conditioned media with 4G8) [3]: the human and murine Aβ1-40 and Aβ1-42 were secreted, however, the human Aβ11-40 peptide was not secreted into culture media from murine primary neurons infected with adenovirus expressing hAPPwt
secretion of Aβ peptides from primary cortical neurons (IP-MS of conditioned media with 4G8) [4]: secretion of these Aβ species is abolished from BACE1-/- neurons except for the Aβ 17-40 (p3) fragment

B3: BACE2 (endogenous, in cultured mouse astrocytes and neurons) (protein)
chain: ALEPVRATANFLAMVDNLQGDSGRGYYLEMLIGTPPQKVQILVDTGSSNFAVAGAPHSYIDTYFDSESSSTYHSKGFDVTVKYTQGSWTGFVGEDLVTIPKGFNSSFLVNIATIFESENFFLPGIKWNGILGLAYAALAKPSSSLETFFDSLVAQAKIPDIFSMQMCGAGLPVAGSGTNGGSLVLGGIEPSLYKGDIWYTPIKEEWYYQIEILKLEIGGQNLNLDCREYNADKAIVDSGTTLLRLPQKVFDAVVEAVARTSLIPEFSDGFWTGAQLACWTNSETPWAYFPKISIYLRDENASRSFRITILPQLYIQPMMGAGFNYECYRFGISSSTNALVIGATVMEGFYVVFDRAQRRVGFAVSPCAEIEGTTVSEISGPFSTEDIASNCVPAQALNEPILWIVSYALMSVCGAILLVLILLLLLPLHCRHAPRDPEVVNDESSLVRHRWK
relative amount of Aβ 1-19 and Aβ 1-20 normalized to Aβ1-40 (ProteinChip array coated with 6E10) [2]: BACE2 mediated cleavages (at +19 and +20 of Aβ) were much higher in cultured astrocytes as compared to neurons
